The target in assay [1] is T1, Gas6 (growth arrest-specific 6), soluble, hexahistidine-tagged (UniProt Q14393 49-678, limits assumed).
T1 construct: also called Gas6 ligand; soluble Gas6
T1 sequence (looked up): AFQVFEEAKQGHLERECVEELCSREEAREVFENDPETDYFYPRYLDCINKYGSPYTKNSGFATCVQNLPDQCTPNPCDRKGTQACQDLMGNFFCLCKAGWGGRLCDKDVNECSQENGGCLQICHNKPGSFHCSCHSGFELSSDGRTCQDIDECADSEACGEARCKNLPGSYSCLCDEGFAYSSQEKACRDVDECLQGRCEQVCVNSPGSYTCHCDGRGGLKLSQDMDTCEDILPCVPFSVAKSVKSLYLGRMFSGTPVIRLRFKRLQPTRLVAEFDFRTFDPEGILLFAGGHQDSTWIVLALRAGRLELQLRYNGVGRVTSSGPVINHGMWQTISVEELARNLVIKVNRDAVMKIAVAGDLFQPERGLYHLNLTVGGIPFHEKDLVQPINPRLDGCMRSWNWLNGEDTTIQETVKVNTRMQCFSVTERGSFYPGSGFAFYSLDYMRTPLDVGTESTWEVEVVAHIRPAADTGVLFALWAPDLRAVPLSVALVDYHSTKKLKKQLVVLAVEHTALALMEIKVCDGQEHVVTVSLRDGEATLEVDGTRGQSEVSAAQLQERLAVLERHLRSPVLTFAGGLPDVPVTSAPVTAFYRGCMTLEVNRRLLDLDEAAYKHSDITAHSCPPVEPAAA
Put plainly: yeast surface display, soluble Gas6.

The target in assay [2] is T1, Gas6 (growth arrest-specific 6), …. Put plainly: yeast surface display, flow cytometry. For orientation: A flow cytometer gives signals particle by particle.
For assay [3], the target named is T2, αvβ3 integrin on K562-αvβ3 cells (K562 leukemia cells transfected with αvβ3 integrin) (UniProt P06756 31-1048; P05106 27-788).
T2 construct: whole, on cells; also called cell-surface αvβ3 integrin
Put plainly: binding to cells that express αvβ3 integrin.

Assay [4] concerns the target T2, αvβ3 integrin on K562-αvβ3 cells (K562 …). Put plainly: flow cytometry on K562-αvβ3 cells, anti-FLAG detection.
The target is the same in assay [5]. Put plainly: K562-αvβ3 cell binding assay.
The target of assay [6] is T3, soluble Alexa-488 labeled human Met-Fc (human, UniProt P08581 25-932, limits assumed, Alexa-488 label).
T3 construct: not shown: Fc part
As to the kind of experiment: dual receptor direct binding assay, flow cytometry; 220 nM Met-Fc, 2 or 20 nM protein.

The next assay concerns the target T4, soluble αvβ3 integrin (UniProt P06756 31-992; P05106 27-718).
T4 construct: also called alpha v beta 3 integrin
Put plainly: yeast surface display, flow cytometry.

Assay [7] has as its target T2, αvβ3 integrin on K562-αvβ3 cells (K562 …). Put plainly: binding titration of the soluble fusion protein on K562-αvβ3 cells, flow cytometry; the cells express αvβ3 integrin and also Met receptor.

A word on the Kd: it is the equilibrium constant for the complex coming apart. Lower therefore signals higher affinity. What is called EC50 (read off the curve) is the midpoint of the concentration-response curve. Low readings indicate higher potency in that assay, high ones lower potency in that assay.

T3 sequence (P08581 25-932 limits assumed): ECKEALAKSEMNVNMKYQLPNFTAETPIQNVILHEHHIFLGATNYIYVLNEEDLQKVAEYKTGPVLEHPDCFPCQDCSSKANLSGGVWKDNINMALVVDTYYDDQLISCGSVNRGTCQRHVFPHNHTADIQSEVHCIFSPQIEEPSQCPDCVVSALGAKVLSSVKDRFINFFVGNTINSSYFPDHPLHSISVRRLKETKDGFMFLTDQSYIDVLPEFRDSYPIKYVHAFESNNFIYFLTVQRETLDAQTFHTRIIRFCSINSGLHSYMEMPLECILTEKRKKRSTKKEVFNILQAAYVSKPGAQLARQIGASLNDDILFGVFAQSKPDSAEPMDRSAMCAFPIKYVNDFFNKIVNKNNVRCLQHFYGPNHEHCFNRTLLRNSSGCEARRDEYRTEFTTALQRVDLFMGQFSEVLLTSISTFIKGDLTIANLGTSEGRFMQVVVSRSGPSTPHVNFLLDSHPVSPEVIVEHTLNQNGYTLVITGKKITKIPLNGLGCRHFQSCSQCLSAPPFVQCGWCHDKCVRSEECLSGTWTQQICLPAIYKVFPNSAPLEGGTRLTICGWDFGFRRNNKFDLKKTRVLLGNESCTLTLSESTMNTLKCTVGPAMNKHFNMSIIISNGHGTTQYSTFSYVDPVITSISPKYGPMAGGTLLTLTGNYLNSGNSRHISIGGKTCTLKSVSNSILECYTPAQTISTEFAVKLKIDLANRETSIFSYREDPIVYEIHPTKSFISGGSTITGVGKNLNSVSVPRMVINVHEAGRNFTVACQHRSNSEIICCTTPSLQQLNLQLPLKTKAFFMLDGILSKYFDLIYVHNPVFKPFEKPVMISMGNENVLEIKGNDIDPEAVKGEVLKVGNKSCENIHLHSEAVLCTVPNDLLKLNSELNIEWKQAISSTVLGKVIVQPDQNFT
T2 sequence (P06756 31-1048, chain 1 of 2): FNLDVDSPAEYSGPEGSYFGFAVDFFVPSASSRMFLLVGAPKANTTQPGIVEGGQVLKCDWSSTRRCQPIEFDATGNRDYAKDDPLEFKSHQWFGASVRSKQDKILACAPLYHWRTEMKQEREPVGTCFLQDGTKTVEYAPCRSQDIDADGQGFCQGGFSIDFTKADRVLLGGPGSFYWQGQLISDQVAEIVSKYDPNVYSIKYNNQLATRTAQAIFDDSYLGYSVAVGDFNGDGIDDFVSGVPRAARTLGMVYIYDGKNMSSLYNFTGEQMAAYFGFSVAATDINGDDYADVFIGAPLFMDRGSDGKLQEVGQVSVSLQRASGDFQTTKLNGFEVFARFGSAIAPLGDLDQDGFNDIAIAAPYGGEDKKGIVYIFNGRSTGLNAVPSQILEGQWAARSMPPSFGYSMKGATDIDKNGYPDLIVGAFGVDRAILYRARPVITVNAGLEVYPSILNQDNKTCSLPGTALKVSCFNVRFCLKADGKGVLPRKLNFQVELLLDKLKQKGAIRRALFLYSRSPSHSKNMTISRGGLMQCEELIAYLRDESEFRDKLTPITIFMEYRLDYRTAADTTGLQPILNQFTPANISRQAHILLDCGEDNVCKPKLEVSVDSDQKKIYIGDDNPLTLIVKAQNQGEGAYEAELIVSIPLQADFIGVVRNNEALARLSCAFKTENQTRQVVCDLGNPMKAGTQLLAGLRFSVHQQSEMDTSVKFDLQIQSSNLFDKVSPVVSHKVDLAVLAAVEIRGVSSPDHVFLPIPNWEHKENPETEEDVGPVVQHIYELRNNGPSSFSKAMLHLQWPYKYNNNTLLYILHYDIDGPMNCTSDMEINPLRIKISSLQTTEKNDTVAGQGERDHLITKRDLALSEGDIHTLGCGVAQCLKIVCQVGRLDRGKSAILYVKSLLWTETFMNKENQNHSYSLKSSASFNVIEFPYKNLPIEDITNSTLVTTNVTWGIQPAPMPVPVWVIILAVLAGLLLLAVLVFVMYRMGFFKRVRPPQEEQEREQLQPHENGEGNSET
T2 sequence (P05106 27-788, chain 2 of 2): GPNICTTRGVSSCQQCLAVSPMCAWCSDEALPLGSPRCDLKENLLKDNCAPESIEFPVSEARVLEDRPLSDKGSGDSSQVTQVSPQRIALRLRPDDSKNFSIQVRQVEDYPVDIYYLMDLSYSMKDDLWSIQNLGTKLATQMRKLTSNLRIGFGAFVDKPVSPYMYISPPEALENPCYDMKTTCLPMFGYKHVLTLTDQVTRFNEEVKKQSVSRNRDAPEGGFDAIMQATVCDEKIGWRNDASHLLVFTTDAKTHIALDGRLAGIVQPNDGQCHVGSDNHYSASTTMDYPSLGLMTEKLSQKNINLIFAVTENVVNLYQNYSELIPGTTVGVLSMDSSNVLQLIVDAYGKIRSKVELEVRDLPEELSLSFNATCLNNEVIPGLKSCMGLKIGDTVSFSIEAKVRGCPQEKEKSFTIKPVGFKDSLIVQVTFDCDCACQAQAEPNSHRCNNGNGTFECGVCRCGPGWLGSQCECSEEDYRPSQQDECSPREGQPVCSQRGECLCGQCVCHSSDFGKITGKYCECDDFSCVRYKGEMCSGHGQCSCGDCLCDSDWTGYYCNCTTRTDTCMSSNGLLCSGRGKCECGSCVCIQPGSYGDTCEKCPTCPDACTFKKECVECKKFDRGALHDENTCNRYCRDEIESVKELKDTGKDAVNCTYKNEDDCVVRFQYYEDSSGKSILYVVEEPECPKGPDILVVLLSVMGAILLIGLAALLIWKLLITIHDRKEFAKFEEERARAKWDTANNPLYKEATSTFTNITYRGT
T4 sequence (P06756 31-992, chain 1 of 2): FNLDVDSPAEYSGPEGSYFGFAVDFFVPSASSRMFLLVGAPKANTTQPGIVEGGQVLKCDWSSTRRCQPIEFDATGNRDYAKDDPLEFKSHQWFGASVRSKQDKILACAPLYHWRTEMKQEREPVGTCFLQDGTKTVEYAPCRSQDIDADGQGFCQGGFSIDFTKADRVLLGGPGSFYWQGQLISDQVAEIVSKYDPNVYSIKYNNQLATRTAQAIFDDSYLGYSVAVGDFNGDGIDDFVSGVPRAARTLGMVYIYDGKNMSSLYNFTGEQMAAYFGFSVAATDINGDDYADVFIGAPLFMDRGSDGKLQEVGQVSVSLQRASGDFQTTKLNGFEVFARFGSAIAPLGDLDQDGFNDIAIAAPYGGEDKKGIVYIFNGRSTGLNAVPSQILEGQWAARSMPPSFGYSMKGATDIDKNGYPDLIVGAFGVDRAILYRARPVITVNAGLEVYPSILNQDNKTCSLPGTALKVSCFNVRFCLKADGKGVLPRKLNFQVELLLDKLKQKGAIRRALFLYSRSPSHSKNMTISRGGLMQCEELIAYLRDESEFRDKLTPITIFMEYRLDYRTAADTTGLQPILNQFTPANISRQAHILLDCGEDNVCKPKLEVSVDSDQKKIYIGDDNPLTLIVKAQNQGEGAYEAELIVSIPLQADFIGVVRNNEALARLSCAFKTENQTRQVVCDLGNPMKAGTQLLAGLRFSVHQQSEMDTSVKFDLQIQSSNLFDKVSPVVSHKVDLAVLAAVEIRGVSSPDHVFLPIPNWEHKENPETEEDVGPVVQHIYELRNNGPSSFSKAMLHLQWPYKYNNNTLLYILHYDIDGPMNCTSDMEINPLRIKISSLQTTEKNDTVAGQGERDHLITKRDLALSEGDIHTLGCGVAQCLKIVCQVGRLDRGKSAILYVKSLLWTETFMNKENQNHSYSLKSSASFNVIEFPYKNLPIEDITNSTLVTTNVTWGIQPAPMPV
T4 sequence (P05106 27-718, chain 2 of 2): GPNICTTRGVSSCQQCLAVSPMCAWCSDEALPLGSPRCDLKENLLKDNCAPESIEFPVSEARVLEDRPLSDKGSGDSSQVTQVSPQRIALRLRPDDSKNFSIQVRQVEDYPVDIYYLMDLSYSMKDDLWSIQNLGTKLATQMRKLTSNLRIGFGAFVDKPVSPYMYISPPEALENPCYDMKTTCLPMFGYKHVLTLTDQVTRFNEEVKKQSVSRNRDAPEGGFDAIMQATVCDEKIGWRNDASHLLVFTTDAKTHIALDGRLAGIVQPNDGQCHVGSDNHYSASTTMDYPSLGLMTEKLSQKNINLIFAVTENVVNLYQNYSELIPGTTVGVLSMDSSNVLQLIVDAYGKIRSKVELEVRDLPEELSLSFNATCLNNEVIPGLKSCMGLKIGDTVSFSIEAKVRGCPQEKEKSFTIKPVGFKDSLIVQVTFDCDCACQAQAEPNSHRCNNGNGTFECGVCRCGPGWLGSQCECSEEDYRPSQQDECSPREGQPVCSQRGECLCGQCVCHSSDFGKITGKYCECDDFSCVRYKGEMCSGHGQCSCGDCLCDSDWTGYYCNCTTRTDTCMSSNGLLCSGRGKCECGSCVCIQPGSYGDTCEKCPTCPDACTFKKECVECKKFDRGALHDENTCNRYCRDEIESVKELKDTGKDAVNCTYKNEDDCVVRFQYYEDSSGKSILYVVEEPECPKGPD

For the molecule GCSWSTLARCKQDSDCLAGCVCMLEPGMRSCGS (designed binder, also called EETI-II mutants alone) [EETI-II mutant of EA 8.04 alone (expressed without Axl)], the binding result in assay [1] is “no binding”.
For GCPQGRGDWAPTSCKQDSDCRAGCVCGPNGFCG (designed binder, also called EETI 2.5D) [EETI-II mutant 2.5D (yeast-displayed)], the binding result in assay [2] is given as “no binding (tested: 0.2, 2 or 20 nM Gas6)”.

B1: EETI 2.5D-Axl fusion protein (soluble, produced in P. pastoris) (designed binder)
chain: GCPQGRGDWAPTSCSQDSDCLAGCVCGPNGFCGSRGTQAEESPFVGNPGNITGARGLTGTLRCQLQVQGEPPEVHWLRDGQILELADSTQTQVPLGEDEQDDWIVVSQLRITSLQLSDTGQYQCLVFLGHQTFVSQPGYVGLEGLP
notes: Treated with endoH; monomeric; also called 2.5D - Axl Ig1; recombinantly produced EETI 2.5D-Axl
B1: the Kd in assay [3] is about 2 nM; in assay [4] it was 1.72 nM.
As to GCLGGVALAHCKQDSDCLAGCVCHILPELCGS (designed binder, also called EETI-II mutants alone) [EETI-II mutant of EA 7.06 alone (expressed without Axl)], in assay [1], the binding result is “no binding”.

B2: EETI2.5F-M2.2(D127A) fusion protein (designed binder)
chain: DYKDDDDKPRGCPRPRGDNPPLTCSQDSDCLAGCVCGPNGFCGYAEGQRKRRNTIHEFKKSAKTTLIKIDPALKIKTEKVNTADQCANRCTRNKGLPFTCKAFVFDKARKRCLWFPFNSMSSGVKKEFGHEFDLYENKDYIRACIIGNGRSYRGTVSITKSGIKCQPWSSMIPHEHSFLPSSYRGEDLRENYCRNPRGEEGGPWCFTSDPEVRYEVCDIPQCSEVETRHHHHHH
In the case of B2, the Kd in assay [5] is 4.6 nM. The binding result in assay [6] is “binds”.

B3: EETI2.5F-M2.2 fusion protein (designed binder)
chain: DYKDDDDKPRGCPRPRGDNPPLTCSQDSDCLAGCVCGPNGFCGYAEGQRKRRNTIHEFKKSAKTTLIKIDPALKIKTEKVNTADQCANRCTRNKGLPFTCKAFVFDKARKRCLWFPFNSMSSGVKKEFGHEFDLYENKDYIRDCIIGNGRSYRGTVSITKSGIKCQPWSSMIPHEHSFLPSSYRGEDLRENYCRNPRGEEGGPWCFTSDPEVRYEVCDIPQCSEVETRHHHHHH
Turning to B3, the binding result in assay [6] is “binds”.

B4: wild-type Axl Ig1 (yeast-displayed) (receptor)
chain: APRGTQAEESPFVGNPGNITGARGLTGTLRCQLQVQGEPPEVHWLRDGQILELADSTQTQVPLGEDEQDDWIVVSQLRITSLQLSDTGQYQCLVFLGHQTFVSQPGYVGLEGLP
notes: T0017 footnote says amino acids 19-132; also called Wt Axl; wt Axl Ig1
B4: the binding result with soluble αvβ3 integrin is reported as “no binding (tested: 20, 50 or 100 nM αvβ3 integrin)”.
As to GCALMTPSAVDCKQDSDCLAGCVCLPGMVRCGS (designed binder, also called EETI-II mutants alone) [EETI-II mutant of EA 7.01 alone (expressed without Axl)], the binding result in assay [1] is “no binding”.

B5: AgRp7A-M2.2 fusion protein (designed binder)
chain: DYKDDDDKPRGCVRLHESCLGQQVPCCDPAATCYCSGRGDNDLVCYCRYAEGQRKRRNTIHEFKKSAKTTLIKIDPALKIKTEKVNTADQCANRCTRNKGLPFTCKAFVFDKARKRCLWFPFNSMSSGVKKEFGHEFDLYENKDYIRDCIIGNGRSYRGTVSITKSGIKCQPWSSMIPHEHSFLPSSYRGEDLRENYCRNPRGEEGGPWCFTSDPEVRYEVCDIPQCSEVETRHHHHHH
For B5, the binding result in assay [6] is “binds”.

B6: AgRp7A-M2.2(D127A) fusion protein (designed binder)
chain: DYKDDDDKPRGCVRLHESCLGQQVPCCDPAATCYCSGRGDNDLVCYCRYAEGQRKRRNTIHEFKKSAKTTLIKIDPALKIKTEKVNTADQCANRCTRNKGLPFTCKAFVFDKARKRCLWFPFNSMSSGVKKEFGHEFDLYENKDYIRACIIGNGRSYRGTVSITKSGIKCQPWSSMIPHEHSFLPSSYRGEDLRENYCRNPRGEEGGPWCFTSDPEVRYEVCDIPQCSEVETRHHHHHH
Take B6: the equilibrium dissociation constant (Kd) in assay [5] was determined as 2.1 nM. Also, in assay [6], the binding result is “binds”.

B7: AgRP7A-Aras4 fusion protein (soluble, FLAG and His tagged) (designed binder)
chain: DYKDDDDKPRGCVRLHESCLGQQVPCCDPAATCYCSGRGDNDLVCYCRYAEGQGKRRNTIHEFKKSAKTTLIKIDPALRIKTEKANTADQCANRCTRSKGLPFTCKAFVFDKARKRCLWFPFNSMSSGVKKEFGHEFDLYENKAYIRDCIIGRGRNYRGTVSITKSGIKCQPWSAMIPHEHSFLPSSYRGEDLRENYCRNPRGEEGGPWCYTSDPEVRYEVCDIPQCSEVETRHHHHHH
notes: Produced in Pichia pastoris
For B7, the “EC50 (read off the curve)” value in assay [7] was about 1 nM.

Source of the values: patent US20140073518A1 (Stanford University, published 2014).
